The supplement of paper PMC9233669
Fewer inactive variants are shown than the library holds.

What was measured:
[1] = system: biotinyl-Trp-oxazolone; assay: self-aminoacylation, catalytic enhancement (BWO) (fold over background); higher = more active; k-Seq, kA / k0A0; sequences stand for … in GGGAAUGGAUCCACAUCUACGAAUUC…UUCACUGCAGACUUGACGAAGCUG
In short: (§1)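 Catalytic enhancement equals the median kA over the uncatalyzed rate, the latter read from the low-activity peak of a bimodal Gaussian fit. Values of kA came from fitting each sequence's fraction reacted to a pseudo-first-order model, with 1000 bootstraps. Reacted RNA was captured with streptavidin and quantified by triplicate qPCR and Illumina sequencing after 90 minutes at room temperature with 2–1250 μM biotinyl-aminoacyl-oxazolone and 0.43 μM mutagenized RNA pools bearing a 21-nt variable region.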

[2] = system: biotinyl-Val-oxazolone; assay: self-aminoacylation, catalytic enhancement (BVO) (fold over background); higher = more active; k-Seq, kA / k0A0; sequences stand for … in GGGAAUGGAUCCACAUCUACGAAUUC…UUCACUGCAGACUUGACGAAGCUG
In short: as §1

[3] = system: biotinyl-Ile-oxazolone; assay: self-aminoacylation, catalytic enhancement (BIO) (fold over background); higher = more active; k-Seq, kA / k0A0; sequences stand for … in GGGAAUGGAUCCACAUCUACGAAUUC…UUCACUGCAGACUUGACGAAGCUG
In short: as §1

[4] = system: biotinyl-Phe-oxazolone; assay: self-aminoacylation, catalytic enhancement (BFO) (fold over background); higher = more active; k-Seq, kA / k0A0; sequences stand for … in GGGAAUGGAUCCACAUCUACGAAUUC…UUCACUGCAGACUUGACGAAGCUG
In short: as §1

[5] = system: biotinyl-Met-oxazolone; assay: self-aminoacylation, catalytic enhancement (BMO) (fold over background); higher = more active; k-Seq, kA / k0A0; sequences stand for … in GGGAAUGGAUCCACAUCUACGAAUUC…UUCACUGCAGACUUGACGAAGCUG
In short: as §1

[6] = system: biotinyl-Leu-oxazolone; assay: self-aminoacylation, catalytic enhancement (BLO) (fold over background); higher = more active; k-Seq, kA / k0A0; sequences stand for … in GGGAAUGGAUCCACAUCUACGAAUUC…UUCACUGCAGACUUGACGAAGCUG
In short: as §1

Row | Sequence | self-aminoacylation [1] | self-aminoacylation [2] | self-aminoacylation [3] | self-aminoacylation [4] | self-aminoacylation [5] | self-aminoacylation [6]
1 | AUUCACCGAGGUCGUCGGGUG [Fam2.2 aminoacylation ribozyme variant] | 3 | 2.55 | 2.55 | 11.1 | 3.16 | 3.03
2 | AUUCACCGAGGUGAUCGGGUG [Fam2.2 aminoacylation ribozyme variant] | 3.05 | 4.15 | 3.8 | 29.6 | 4.75 | 6.59
3 | AUUCACCGAGGUUAUCGGGUG [Fam2.2 aminoacylation ribozyme variant] | 7.66 | 5.85 | 4.28 | 87.3 | 7.16 | 10
4 | AUUCACCUAACUCAUCGGGUG [Fam2.2 aminoacylation ribozyme variant] | 3.17 | 2.41 | 2.36 | 22.8 | 4.05 | 4.47
5 | AUUCACCUAAGCCAUCGGGUG [Fam2.2 aminoacylation ribozyme variant] | 3.01 | 3.24 | 2.55 | 26.6 | 3 | 4.62
6 | AUUCACCUAAGGCAUCGGGUG [Fam2.2 aminoacylation ribozyme variant] | 3.67 | 3.31 | 2.69 | 26.5 | 3.3 | 4.9
7 | AUUCACCUAAGUCAACGGGUG [Fam2.2 aminoacylation ribozyme variant] | 3.21 | 2.43 | 2.58 | 28 | 3.57 | 4.67
8 | AUUCACCUAAGUCACCGGGUG [Fam2.2 aminoacylation ribozyme variant] | 5.67 | 4.88 | 4.72 | 53.8 | 7.03 | 8.36
9 | AUUCACCUAAGUCAUAGGGUG [Fam2.2 aminoacylation ribozyme variant] | 1.3 | 1.21 | 1.32 | 5.88 | 1.87 | 1.92
10 | AUUCACCUAAGUCAUCGGAUG [Fam2.2 aminoacylation ribozyme variant] | 0.557 | 0.983 | 0.917 | 0.343 | 0.736 | 0.815
11 | AUUCACCUAAGUCAUCGGCUG [Fam2.2 aminoacylation ribozyme variant] | 0.999 | 1.58 | 1.52 | 5.86 | 1.55 | 1.63
12 | AUUCACCUAAGUCAUCGGGAG [Fam2.2 aminoacylation ribozyme variant] | 1.14 | 1.49 | 1.07 | 0.578 | 1.2 | 1.81
13 | AUUCACCUAAGUCAUCGGGCG [Fam2.2 aminoacylation ribozyme variant] | 2.51 | 2.53 | 2.63 | 9.59 | 2.83 | 4.95
14 | AUUCACCUACGUCAUAGGGUG [Fam2.2 aminoacylation ribozyme variant] | 0.634 | 0.933 | 0.915 | 0.864 | 1.34 | 1.02
15 | AUUCACCUACGUCAUCGCGUG [Fam2.2 aminoacylation ribozyme variant] | 9.63 | 5.93 | 5.7 | 83.5 | 10.3 | 14.1
16 | AUUCACCUACGUCAUCGGGUC [Fam2.2 aminoacylation ribozyme variant] | 0.963 | 1.21 | 1.17 | 4.31 | 1.25 | 1.36
17 | AUUCACCUACGUCAUCGGGUG [Fam2.2 aminoacylation ribozyme variant] | 4.79 | 3.38 | 3.24 | 36.7 | 5.27 | 6.98
18 | AUUCACCUACGUGAUCGGGUG [Fam2.2 aminoacylation ribozyme variant] | 3.44 | 2 | 2.19 | 20.2 | 2.81 | 3.64
19 | AUUCACCUAGAUCAUCGCGUG [Fam2.2 aminoacylation ribozyme variant] | 5.99 | 3.69 | 3.85 | 48.1 | 5.82 | 8.58
20 | AUUCACCUAGAUCAUCGGUUG [Fam2.2 aminoacylation ribozyme variant] | 0.447 | 0.983 | 0.794 | 0.463 | 0.778 | 0.786
21 | AUUCACCUAGAUCAUCUGGUG [Fam2.2 aminoacylation ribozyme variant] | 2.21 | 1.73 | 1.71 | 14.8 | 2.39 | 2.82
22 | AUUCACCUAGAUCAUGGGGUG [Fam2.2 aminoacylation ribozyme variant] | 4.68 | 2.61 | 3.07 | 31.5 | 5.3 | 6.83
23 | AUUCACCUAGAUCCUCGGGUG [Fam2.2 aminoacylation ribozyme variant] | 3.16 | 1.99 | 2.22 | 22.6 | 3.57 | 4.04
24 | AUUCACCUAGAUCGUCGGGUG [Fam2.2 aminoacylation ribozyme variant] | 0.967 | 1.38 | 1.14 | 3.8 | 1.06 | 1.3
25 | AUUCACCUAGCUCAACGGGUG [Fam2.2 aminoacylation ribozyme variant] | 1.95 | 1.36 | 1.37 | 6.75 | 1.88 | 2.28
26 | AUUCACCUAGCUCAUCCGGUG [Fam2.2 aminoacylation ribozyme variant] | 3.68 | 2.51 | 2.45 | 16.5 | 3.18 | 3.7

Row | Sequence | self-aminoacylation [1] | self-aminoacylation [2] | self-aminoacylation [3] | self-aminoacylation [4] | self-aminoacylation [5] | self-aminoacylation [6]
27 | AUUCACCUAGCUCAUCGAGUG [Fam2.2 aminoacylation ribozyme variant] | 0.394 | 0.791 | 0.7 | 0.417 | 0.652 | 0.548
28 | AUUCACCUAGCUCAUCGGUUG [Fam2.2 aminoacylation ribozyme variant] | 0.533 | 0.845 | 0.978 | 0.258 | 0.921 | 0.861
29 | AUUCACCUAGCUCAUUGGGUG [Fam2.2 aminoacylation ribozyme variant] | 2.07 | 1.69 | 1.44 | 5.14 | 1.89 | 1.62
30 | AUUCACCUAGCUCUUCGGGUG [Fam2.2 aminoacylation ribozyme variant] | 2.74 | 2.42 | 2.08 | 10.9 | 2.25 | 2.62
31 | AUUCACCUAGGAAAUCGGGUG [Fam2.2 aminoacylation ribozyme variant] | 5.87 | 3.5 | 4.03 | 53 | 6.99 | 8.95
32 | AUUCACCUAGGACAUCCGGUG [Fam2.2 aminoacylation ribozyme variant] | 4.47 | 6.22 | 7.62 | 31 | 5.98 | 6
33 | AUUCACCUAGGACAUCGCGUG [Fam2.2 aminoacylation ribozyme variant] | 3.99 | 2.83 | 2.53 | 26.8 | 3.57 | 4.57
34 | AUUCACCUAGGACAUCUGGUG [Fam2.2 aminoacylation ribozyme variant] | 2.13 | 1.72 | 2.02 | 8.71 | 2.13 | 2.13
35 | AUUCACCUAGGACAUUGGGUG [Fam2.2 aminoacylation ribozyme variant] | 2.79 | 2.28 | 2.24 | 25.8 | 3.42 | 4
36 | AUUCACCUAGGACGUCGGGUG [Fam2.2 aminoacylation ribozyme variant] | 1.42 | 1.88 | 1.66 | 9.18 | 1.91 | 1.91
37 | AUUCACCUAGGCCAUCCGGUG [Fam2.2 aminoacylation ribozyme variant] | 5.92 | 4.6 | 4.25 | 32 | 5.26 | 5.83
38 | AUUCACCUAGGCCAUCGCGUG [Fam2.2 aminoacylation ribozyme variant] | 3.85 | 4.15 | 4.69 | 31.6 | 4.45 | 6.31
39 | AUUCACCUAGGCCAUCGGGUA [Fam2.2 aminoacylation ribozyme variant] | 3.52 | 2.21 | 2.42 | 16.4 | 3.31 | 3.81
40 | AUUCACCUAGGCCAUUGGGUG [Fam2.2 aminoacylation ribozyme variant] | 3.71 | 2.85 | 3.11 | 34.9 | 4.09 | 5.31
41 | AUUCACCUAGGCCCUCGGGUG [Fam2.2 aminoacylation ribozyme variant] | 3.75 | 3.1 | 2.81 | 24.2 | 3.26 | 3.88
42 | AUUCACCUAGGCCUUCGGGUG [Fam2.2 aminoacylation ribozyme variant] | 3.83 | 3.43 | 2.49 | 19.9 | 3.67 | 5.19
43 | AUUCACCUAGGCUAUCGGGUG [Fam2.2 aminoacylation ribozyme variant] | 3.79 | 3.06 | 2.43 | 21.8 | 3.76 | 4.84
44 | AUUCACCUAGGGCAUCCGGUG [Fam2.2 aminoacylation ribozyme variant] | 8.38 | 8.74 | 10.5 | 54.4 | 10.7 | 12.6
45 | AUUCACCUAGGGCAUCGGGUA [Fam2.2 aminoacylation ribozyme variant] | 3.3 | 3.46 | 2.89 | 2.02 | 3.25 | 2.34
46 | AUUCACCUAGGGCGUCGGGUG [Fam2.2 aminoacylation ribozyme variant] | 1.83 | 1.84 | 1.73 | 9.76 | 2.21 | 2.92
47 | AUUCACCUAGGUAAACGGGUG [Fam2.2 aminoacylation ribozyme variant] | 3.84 | 2.27 | 1.97 | 22.9 | 3.77 | 4.47
48 | AUUCACCUAGGUAAUAGGGUG [Fam2.2 aminoacylation ribozyme variant] | 4.25 | 2.43 | 2.7 | 22 | 4.95 | 5.63
49 | AUUCACCUAGGUAAUCGGGUA [Fam2.2 aminoacylation ribozyme variant] | 1.8 | 1.47 | 1.39 | 5.56 | 1.55 | 1.33
50 | AUUCACCUAGGUAAUCGGUUG [Fam2.2 aminoacylation ribozyme variant] | 0.967 | 0.687 | 0.71 | 0.536 | 0.735 | 0.91
51 | AUUCACCUAGGUAUUCGGGUG [Fam2.2 aminoacylation ribozyme variant] | 3.35 | 2.59 | 2.81 | 21.8 | 3.34 | 5.02
